Holding throughout (assay): Scatchard binding assay
Test [1] deals with T1, G-CSF receptor (KK cells) (Homo sapiens, UniProt Q99062).
T1 chain: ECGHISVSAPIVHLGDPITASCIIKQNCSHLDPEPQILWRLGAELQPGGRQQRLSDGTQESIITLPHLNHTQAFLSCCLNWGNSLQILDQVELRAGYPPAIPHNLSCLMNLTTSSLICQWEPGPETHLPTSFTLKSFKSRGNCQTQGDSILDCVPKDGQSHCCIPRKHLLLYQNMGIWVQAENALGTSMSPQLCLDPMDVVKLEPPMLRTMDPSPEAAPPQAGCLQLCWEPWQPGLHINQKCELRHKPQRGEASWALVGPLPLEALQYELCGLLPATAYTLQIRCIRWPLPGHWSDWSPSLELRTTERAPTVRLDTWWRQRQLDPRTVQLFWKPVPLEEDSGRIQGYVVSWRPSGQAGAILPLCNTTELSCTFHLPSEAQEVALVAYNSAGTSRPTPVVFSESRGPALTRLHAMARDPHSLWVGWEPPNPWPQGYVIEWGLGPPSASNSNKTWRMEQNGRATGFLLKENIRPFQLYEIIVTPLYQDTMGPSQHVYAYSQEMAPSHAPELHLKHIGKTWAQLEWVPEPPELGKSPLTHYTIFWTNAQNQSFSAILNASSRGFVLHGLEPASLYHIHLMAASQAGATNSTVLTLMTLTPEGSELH

Test [2] has as its target T2, G-CSF receptor (NBT-2 cells) (Homo sapiens, UniProt Q99062).
T2 chain: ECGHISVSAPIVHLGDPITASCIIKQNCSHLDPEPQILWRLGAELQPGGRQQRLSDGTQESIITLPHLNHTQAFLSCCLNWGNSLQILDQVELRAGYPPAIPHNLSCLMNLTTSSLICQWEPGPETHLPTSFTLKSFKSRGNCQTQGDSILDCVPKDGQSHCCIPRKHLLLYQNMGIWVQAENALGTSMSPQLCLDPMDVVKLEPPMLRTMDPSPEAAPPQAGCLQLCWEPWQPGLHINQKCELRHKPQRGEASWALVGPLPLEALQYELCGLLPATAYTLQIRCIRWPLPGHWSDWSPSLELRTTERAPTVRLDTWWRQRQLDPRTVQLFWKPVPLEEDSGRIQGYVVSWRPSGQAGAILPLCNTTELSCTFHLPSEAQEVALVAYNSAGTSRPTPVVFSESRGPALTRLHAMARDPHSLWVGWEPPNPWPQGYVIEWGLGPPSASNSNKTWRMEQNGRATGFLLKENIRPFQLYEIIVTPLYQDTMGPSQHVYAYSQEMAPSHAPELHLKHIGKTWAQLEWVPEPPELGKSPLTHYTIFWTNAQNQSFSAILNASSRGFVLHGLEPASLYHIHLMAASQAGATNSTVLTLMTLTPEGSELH

Test [3] concerns the target T3, G-CSF receptor (KU-1 cells) (Homo sapiens, UniProt Q99062).
T3 chain: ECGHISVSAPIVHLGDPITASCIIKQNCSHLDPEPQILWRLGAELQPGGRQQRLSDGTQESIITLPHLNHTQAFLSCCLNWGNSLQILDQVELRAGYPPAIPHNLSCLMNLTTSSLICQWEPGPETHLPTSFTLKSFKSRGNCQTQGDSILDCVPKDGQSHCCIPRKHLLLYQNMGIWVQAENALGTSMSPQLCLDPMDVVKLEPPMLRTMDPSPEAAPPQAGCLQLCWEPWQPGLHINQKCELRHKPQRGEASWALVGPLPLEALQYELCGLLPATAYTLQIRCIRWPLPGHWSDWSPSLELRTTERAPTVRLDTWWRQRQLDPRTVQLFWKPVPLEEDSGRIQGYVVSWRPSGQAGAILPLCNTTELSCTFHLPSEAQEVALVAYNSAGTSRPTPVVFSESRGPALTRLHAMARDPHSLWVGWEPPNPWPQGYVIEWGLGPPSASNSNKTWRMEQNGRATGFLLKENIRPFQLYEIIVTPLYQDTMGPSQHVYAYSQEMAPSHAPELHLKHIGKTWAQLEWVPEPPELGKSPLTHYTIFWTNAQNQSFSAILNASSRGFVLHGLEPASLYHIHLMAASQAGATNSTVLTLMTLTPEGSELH

From PMC2223497 (2026) come the findings set out here.

B1: G-CSF (protein)
chain: TPLGPASSLPQSFLLKCLEQVRKIQGDGAALQEKLVSECATYKLCHPEELVLLGHSLGIPWAPLSSCPSQALQLAGCLSQLHSGLFLYQGLLQALEGISPELGPTLDTLQLDVADFATTIWQQMEELGMAPALQPTQGAMPAFASAFQRRAGGVLVASHLQSFLEVSYRVLRHLAQP
As usually defined, the Kd is the constant that tells how readily two partners part at equilibrium. With B1, the results for the Kd in test [1], in test [2] and in test [3] were 103 pM, 340 pM and 490 pM, respectively.
